Test results reported in publication PMC3828522 (Genes & Development, 2013).
Changes are numbered by the printed parent chain. Names and notes keep the numbering of the source. Values belong to the binder of their own block, whether it stands above or below them.

Legend:
[1] = molecular target: biotin-YY1 spacer peptide (human, UniProt P25490 199-228, biotin (position not given)); assay: SPR
[2] = molecular target: full-length Pho protein (EMSA) (Drosophila melanogaster, UniProt Q8ST83 1-520); assay: native gel or EMSA
[3] = molecular target: biotin-Pho spacer peptide (Drosophila melanogaster, UniProt Q8ST83 145-172, biotin (position not given)); assay: SPR
biotin-Pho spacer peptide, sequence (Q8ST83 145-172): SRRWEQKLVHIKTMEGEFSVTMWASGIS

biotin-YY1 spacer peptide, sequence (P25490 199-228): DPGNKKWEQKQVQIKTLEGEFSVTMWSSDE
full-length Pho protein (EMSA), sequence (Q8ST83 whole entry): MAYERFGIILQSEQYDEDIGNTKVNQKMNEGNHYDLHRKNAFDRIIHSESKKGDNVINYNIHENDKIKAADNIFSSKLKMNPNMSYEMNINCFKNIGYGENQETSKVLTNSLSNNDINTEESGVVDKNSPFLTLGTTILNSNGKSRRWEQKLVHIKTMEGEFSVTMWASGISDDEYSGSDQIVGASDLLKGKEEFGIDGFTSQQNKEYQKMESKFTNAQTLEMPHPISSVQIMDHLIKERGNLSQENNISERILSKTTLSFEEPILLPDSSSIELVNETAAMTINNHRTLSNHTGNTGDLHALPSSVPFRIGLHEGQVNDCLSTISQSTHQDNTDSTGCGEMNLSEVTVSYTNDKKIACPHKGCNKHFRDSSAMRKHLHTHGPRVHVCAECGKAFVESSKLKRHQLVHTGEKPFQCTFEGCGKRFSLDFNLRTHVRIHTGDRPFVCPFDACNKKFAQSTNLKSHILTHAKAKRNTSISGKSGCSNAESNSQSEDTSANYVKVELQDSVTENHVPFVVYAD

- fold weaker affinity than the Drosophila complex [1]: ~50 fold
B1: L3MBTL2 4MBT domain, human (domain or fragment)
chain: TGQDALVLGFDWGKFLKDHSYKAAPVSCFKHVPLYDQWEDVMKGMKVEVLNSDAVLPSRVYWIASVIQTAGYRVLLRYEGFENDASHDFWCNLGTVDVHPIGWCAINSKILVPPRTIHAKFTDWKGYLMKRLVGSRTLPVDFHIKMVESMKYPFRQGMRLEVVDKSQVSRTRMAVVDTVIGGRLRLLYEDGDSDDDFWCHMWSPLIHPVGWSRRVGHGIKMSERRSDMAHHPTFRKIYCDAVPYLFKKVRAVYTEGGWFEEGMKLEAIDPLNLGNICVATVCKVLLDGYLMICVDGGPSTDGLDWFCYHASSHAIFPATFCQKNDIELTPPKGYEAQTFNWENYLEKTKSKAAPSRLFNMDCPNHGFKVGMKLEAVDLMEPRLICVATVKRVVHRLLSIHFDGWDSEYDQWVDCESPDIYPVGWCELTGYQLQPPVAAEPATPLKAKEATKKKKKQ

- fold weaker affinity than the Drosophila complex [1]: ~50 fold
B2: MBTD1 4MBT domain, human (domain or fragment)
chain: AKTKAAVSMEGFSWGNYINSNSFIAAPVTCFKHAPMGTCWGDISENVRVEVPNTDCSLPTKVFWIAGIVKLAGYNALLRYEGFENDSGLDFWCNICGSDIHPVGWCAASGKPLVPPRTIQHKYTNWKAFLVKRLTGAKTLPPDFSQKVSESMQYPFKPCMRVEVVDKRHLCRTRVAVVESVIGGRLRLVYEESEDRTDDFWCHMHSPLIHHIGWSRSIGHRFKRSDITKKQDGHFDTPPHLFAKVKEVDQSGEWFKEGMKLEAIDPLNLSTICVATIRKVLADGFLMIGIDGSEAADGSDWFCYHATSPSIFPVGFCEINMIELTPPRGYTKLPFKWFDYLRETGSIAAPVKLFNKDVPNHGFRVGMKLEAVDLMEPRLICVATVTRIIHRLLRIHFDGWEEEYDQWVDCESPDLYPVGWCQLTGYQLQPPASQSSR

- binding result [2]: binds
B3: Sfmbt 4MBT domain (Sfmbt 531-980), wild type (domain or fragment, Drosophila melanogaster, UniProt Q9VK33 531-980, looked up)
chain: DPTHSYDWLPRLSKENFNAAPVTCFPHAPGCEVWDNLGVGMKVEVENTDCDSIEVIQPGQTPTSFWVATILEIKGYKALMSYEGFDTDSHDFWVNLCNAEVHSVGWCATRGKPLIPPRTIEHKYKDWKDFLVGRLSGARTLPSNFYNKINDSLQSRFRLGLNLECVDKDRISQVRLATVTKIVGKRLFLRYFDSDDGFWCHEDSPIIHPVGWATTVGHNLAAPQDYLERMLAGREAMIEVHEDDATIELFKMNFTFDEYYSDGKTNSFVEGMKLEAVDPLNLSSICPATVMAVLKFGYMMIRIDSYQPDASGSDWFCYHEKSPCIFPAGFCSVNNISVTPPNGYDSRTFTWEGYLRDTGAVAAGQHLFHRIIPDHGFEVGMSLECADLMDPRLVCVATVARVVGRLLKVHFDGWTDEYDQWLDCESADIYPVGWCVLVNHKLEGPPRVAH

- fold decrease in binding affinity against the wild type [3]: 2 fold
B4: Sfmbt 4MBT S633P/S673P (domain or fragment, Drosophila melanogaster, UniProt Q9VK33 531-980, looked up)
chain: B3 chain with S103P, S143P
